B1: TraP8: chloroplast transit peptide, encoding sequence SEQ ID NO:26, fused to dgt-28 (protein)
chain: MAQSSRICHGVQNPCVIISNLSKSNQNKSPFSVSLKTHQQQRRAYQISSWGLKKSNNGSVIRPVKA
modifications: Chloroplast Transit Peptide
B2: TraP4: chloroplast transit peptide, encoding sequence SEQ ID NO:24, fused to dgt-28 (protein)
chain: MLARQGGSLRASQCNAGLARRVEVGALVVPRPISVNDVVPHVYSAPLSVARRSCSKSSIRSTRRLQTTVCS
modifications: Chloroplast Transit Peptide
B3: TraP23: synthetic chloroplast transit peptide, SEQ ID NO:11; encoded by SEQ ID NO:12; tested fused to GFP, dgt-28, dgt-31, cry2Aa (protein)
chain: MAQINKSANGVRNASLISNFSNTRQAKSPFSLSCGTRLKNSSRGLKKVAVRLIGSRVKVSAS
modifications: TraP23 synthetic chloroplast transit peptide
notes: tested fused to GFP, dgt-28, dgt-31, cry2Aa

How the values were obtained:
T1 Arabidopsis = T1 Arabidopsis response to glyphosate applied postemergence (Tables 5-7); type: in vivo, Arabidopsis thaliana
From the text: Transgenic T1 Arabidopsis plants containing the dgt-28 transgene were sprayed with differing rates of glyphosate. Elevated rates were applied in this study to determine the relative levels of resistance (105, 420, 1,680 or 3,360 g ae/ha). A typical 1× usage rate of glyphosate that will control non-transformed Arabidopsis is 420 g ae/ha. […] The T1 Arabidopsis plants that were used in this study were variable copy number for the dgt-28 transgene. The low copy dgt-28 T1 Arabidopsis plants were self-pollinated and used to produce T2 plants.
The Arabidopsis T1 transformants were first selected from the background of untransformed seed using a glufosinate selection scheme. Three flats or 30,000 seed were analyzed for each T1 construct. The T1 plants selected above were molecularly characterized and representative plants with variable copy number were subsequently transplanted to individual pots and sprayed with various rates of commercial glyphosate as previously described. The response of these plants is presented in terms of % visual injury 2 weeks after treatment (WAT). […] An arithmetic mean and standard deviation is presented for each construct used for Arabidopsis transformation. The range in individual response is also indicated in the last column for each rate and transformation. Wild-type, non-transformed Arabidopsis (c.v. Columbia) served as a glyphosate sensitive control.

T1 tobacco = experiment: Postemergence glyphosate tolerance of dgt-28 T1 tobacco (Table 25); type: in vivo, Tobacco (cv. Petit Havana); details: 2240 g ae/ha glyphosate, 14 DAT
From the text: T1 resistant plants from each event used in the progeny testing were given unique identifiers and sampled for zygosity analyses of the dgt-28 gene. Zygosity data were used to assign 2 hemizygous and 2 homozygous replicates to each rate of glyphosate applied allowing for a total of 4 replicates per treatment. These plants were compared against wildtype Petite havana tobacco. All plants were sprayed with a track sprayer set at 187 L/ha. The plants were sprayed from a range of 560-4480 g ae/ha DURANGO DMA™. All applications were formulated in water with the addition of 2% w/v ammonium sulfate (AMS). Plants were evaluated at 7 and 14 days after treatment. Plants were assigned an injury rating with respect to overall visual stunting, chlorosis, and necrosis. The T1 generation is segregating, so some variable response is expected due to difference in zygosity.

[1] = test system: chloroplasts of the tobacco cells; experiment: Tobacco transient assay, confocal microscopy of TraP-GFP; type: cell-based, Nicotiana benthamiana; details: TraP23-GFP, infiltrated tobacco leaf
From the text: The Trap23 synthetic chloroplast transit peptide sequence were initially tested via a transient in planta assay. A polynucleotide sequence which encodes the Trap23v2 (SEQ ID NO:12) synthetic chloroplast transit peptide sequences was synthesized. The resulting construct contained two plant transcription units (PTU). The first PTU was comprised of the Arabidopsis thaliana Ubiquitin 10 promoter (AtUbi10 promoter; Callis, et al., (1990) J. Biol. Chem., 265: 12486-12493), TraP-green fluorescent protein fusion gene (TraP-GFP; U.S. Pat. No. 7,678,893), and Agrobacterium tumefaciens ORF 23 3′ untranslated region (AtuORF23 3′UTR; U.S. Pat. No. 5,428,147). […]
Agrobacterium-infiltrated tobacco leaves were severed from the plant, and placed into a petri-dish with water to prevent dehydration. The infiltrated tobacco leaves were observed under blue light excitation with long-pass filter glasses held in place using a Dark Reader Hand Lamp™ (Clare Chemical Research Co.; Dolores, Colo.) to identify undamaged areas of the leaf that were successfully expressing the GFP reporter proteins. […]

[2] = test system: infiltrated tobacco cells; experiment: Tobacco transient assay, anti-GFP Western blot; type: cell-based, Nicotiana benthamiana; details: infiltrated tobacco leaf; band size vs GFP control
Experimental: Samples of the infiltrated tobacco plants were assayed via Western blotting. Leaf punches were collected and subjected to bead-milling. About 100-200 mg of leaf material was mixed with 2 BBs (steel balls; Daisy; Rogers, Ark.) and […] of PBST for 3 minutes in a Kleco™ bead mill. The samples were then spun down in a centrifuge at 14,000×g at 4° C. The supernatant was removed and either analyzed directly via Western blot or immunoprecipitated. The immunoprecipitations were performed using the Pierce Direct IP Kit™ (Thermo Scientific; Rockford, Ill.) following the manufacturer's protocol. Approximately, 50 μg of anti-GFP was bound to the resin. The samples were incubated with the resin overnight at 4° C. Next, the samples were washed and eluted the following morning and prepped for analysis by combining equal volumes of 2×8M Urea sample buffer and then boiling the samples for 5 minutes. The boiled samples were run on a 4-12% SDS-Bis Tris gel in MOPS buffer for 40 minutes. The gel was then blotted using the Invitrogen iBlot™ (Life Technologies; Carlsbad, Calif.) following the manufacturer's protocol. The blotted membrane was blocked for 10 minutes using 5% non-fat dry milk in PBS-Tween solution. The membrane was probed with the primary antibody (monoclonal anti-GFP in rabbit) used at a 1:1000 dilution in the 5% non-fat dry milk in PBS-Tween solution for 1 hour. […]

[3] = test system: chloroplasts of the maize protoplast; experiment: Maize protoplast transient assay, GFP microscopy; type: cell-based, Zea mays var. B104; details: TraP23-GFP, maize protoplasts, 12 hours incubation
From the text: The Trap23 v2 synthetic chloroplast transit peptide-encoding polynucleotide sequence (SEQ ID NO:12) was cloned upstream of the green fluorescent protein gene and incorporated into the pDAB106598 construct (FIG. 5) for testing via the maize protoplast transient in planta assay. The resulting construct contained the following plant transcription unit (PTU). The first PTU was comprised of the Zea mays Ubiquitin 1 promoter (ZmUbi1 promoter; Christensen, A., Sharrock R., and Quail P., (1992) Maize polyubiquitin genes: structure, thermal perturbation of expression and transcript splicing, and promoter activity following transfer to protoplasts by electroporation, Plant Molecular Biology, 18:675-689), TraP-green fluorescent protein fusion gene (TraP23-GFP; U.S. Pat. No. 7,678,893), and Zea mays Peroxidase 5 3′ untranslated region (ZmPer5 3′UTR; U.S. Pat. No. 6,384,207). The construct was confirmed via restriction enzyme digestion and sequencing.
Seed of Zea mays var. B104 were surface sterilized by shaking vigorously in 50% Clorox (3% sodium hypochlorite), containing 2-3 drops of Tween 20, for about 20 minutes. […]
Transfection of 100 to 500 μl of protoplasts (1-5×10^5) was completed by adding the protoplasts to a 2 ml microfuge tube containing about 40 μg of plasmid DNA (pDAB106598), at room temperature. […] Fluorescence of GFP was viewed by microscopy after 12 hours of incubation. […]

Row | Molecule | typical 1x usage rate of glyphosate that will control non-transformed Arabidopsis (T1 Arabidopsis) [g ae/ha] | % Injury Ave (T1 tobacco) | accumulation of GFP protein within the chloroplasts (microscopy imaging) [1] | processing and cleavage of transit peptide from GFP (Western blot) [2] | accumulation of GFP within the chloroplasts (microscopy imaging) [3]
1 | O=C(O)CNCP(=O)(O)O [glyphosate] | 420 | – | – | – | –
2 | B1 | – | 9.3% | – | – | –
3 | B2 | – | of 37.5% was demonstrated with the event containing TraP4, | – | – | –
4 | B3 | – | 9.5% | did not accumulate detectable amounts of GFP protein within the chloroplasts | processed | accumulated within the chloroplasts

— patent US9506077B2, “Synthetic chloroplast transit peptides” (DOW AGROSCIENCES LLC, priority 2012, dated 2016)
